Our source for the IC50 values is US20080075726A1 (VACCINEX, published 2008).

As a reminder, the IC50 is the concentration that gives 50% inhibition.

The labels stand for the following.
B1: mAb 186 (antibody, V domains shown)
VH: QVTLKESGPALVKPTQTLTLTCTFSGFSLTTSGMCVSWIRQPPGKALEWLALIYWDDDKRYNPSLRSRLTITKDTSKNQVVLTMTNMDPVDTATYYCARSYDDYLYYALDYWGQGTLVT
VL: DVVMTQSPSSLSASVGGRVTITCRASQTIGDYLNWYQQKPGKAPRLLIYSASIVQSGVPSRFSASGSGTDFTLTISSLQPEDFATYSCQQSYSFPLTFGGGTKLEIK
B2: mAb 188 (antibody, V domains shown)
VH: QVTLKESGPALVKPTQTLTLTCTFSGFSLTTSGMCVSWIRQPPGKALEWLALIYWDDDKRYNPSLRSRLTITKDTSKNQVVLTMTNMDPVDTATYYCARSYDDYLYYALDYWGQGTLVT
VL: DIQMTQSPSTLSASVGDRVTITCRASQSISRWLAWYQQKPGKAPKLLISKASSLEYGVPSRFSGSGSGTEFALTISNVQPEDFATYYCQQSFAVPLTFGGGTKLEIK
B3: mAb 187 (antibody, V domains shown)
VH: QVTLKESGPALVKPTQTLTLTCTFSGFSLTTSGMCVSWIRQPPGKALEWLALIYWDDDKRYNPSLRSRLTITKDTSKNQVVLTMTNMDPVDTATYYCARSYDDYLYYALDYWGQGTLVT
VL: EIVLTQSPSSLSASAGDTVTIACRASQGIRTALAWYQQKPGRNPKLLISEAYRLQSGVSPKFSGSGFGTDFTLTINSLQPEDFATYYCQQFNDFPLTFGGGTKLEIK
B4: mAb 189 (antibody, V domains shown)
VH: QVTLKESGPALVKPTQTLTLTCTFSGFSLTTSGMCVSWIRQPPGKALEWLALIYWDDDKRYNPSLRSRLTITKDTSKNQVVLTMTNMDPVDTATYYCARSYDDYLYYALDYWGQGTLVT
VL: DIQMTQSPSSLSAFVGDGVTMTCWASQSINDYLNWYHQRPGEAPELLVFAASNLQIGVPSRFRGSGSETYFTLTINSLQPEDSGTYFCQQTSSFPLTFGGGTKLE
B5: mAb 1127 (antibody, V domains shown)
VH: QVTLKESGPTLVKPTQTLTLTCSFSGFSLSTSGVGVGWVRQPPGKALEWLAFIFWDDDKYYSPSLESRLTITKDTSKNQVVLTMTNMDPVDTATYYCARSYDDYLMYALDYWGQGTLVT
VL: DIQMTQSPSSLSAFVGDGVTMTCWASQSINDYLNWYHQRPGEAPELLVFAASNLQIGVPSRFRGSGSETYFTLTINSLQPEDSGTYFCQNGHSFPLTFGGGTKLEI
B6: mAb 808 (antibody, V domains shown)
VH: QVTLKESGPTLVKPTQTLTLTCSFSGFSLSTSGVGVGWVRQPPGKALEWLAFIFWDDDKYYSPSLESRLTITKDTSKNQVVLTMTNMDPVDTATYYCARSYDDYLYYALDYWGQGTLVT
VL: DIQMTQSPSSLSAFVGDGVTMTCWASQSINDYLNWYHQRPGEAPELLVFAASNLQIGVPSRFRGSGSETYFTLTINSLQPEDSGTYFCQNGWSFPLTFGGGTKLEI
B7: mAb 1192 (antibody, V domains shown)
VH: QVTLKESGPTLVKPTQTLTLTCSFSGFSLSTSGVGVGWVRQPPGKALEWLAFIWWDDDKYYSPSLESRLTITKDTSKNQVVLTMTNMDPVDTATYYCARSYDDYLYYALDYWGQGTLVT
VL: DIQMTQSPSSLSAFVGDGVTMTCWASQSINDYLNWYHQRPGEAPELLVFAASNLQIGVPSRFRGSGSETYFTLTINSLQPEDSGTYFCQNGHSFPLTFGGGTKLEI
B8: mAb 1123 (antibody, V domains shown)
VH: QVTLKESGPTLVKPTQTLTLTCSFSGFSLSTSGVGVGWVRQPPGKALEWLAFIFWDDDKYYSPSLESRLTITKDTSKNQVVLTMTNMDPVDTATYYCARFYDDYLYYALDYWGQGTLVT
VL: DIQMTQSPSSLSAFVGDGVTMTCWASQSINDYLNWYHQRPGEAPELLVFAASNLQIGVPSRFRGSGSETYFTLTINSLQPEDSGTYFCQNGHSFPLTFGGGTKLEI
B9: mAb 1154 (antibody, V domains shown)
VH: QVTLKESGPTLVKPTQTLTLTCSFSGFSLSTSGVGVGWVRQPPGKALEWLAFIFWDDDKYYSPSLESRLTITKDTSKNQVVLTMTNMDPVDTATYYCARSADDYLYYSFDTWGQGTLVT
VL: DIQMTQSPSSLSAFVGDGVTMTCWASQSINDYLNWYHQRPGEAPELLVFAASNLQIGVPSRFRGSGSETYFTLTINSLQPEDSGTYFCQNGHSFPLTFGGGTKLEI
B10: mAb 992 (antibody, V domains shown)
VH: QVTLKESGPTLVKPTQTLTLTCSFSGFSLSTSGVGVGWVRQPPGKALEWLAFIFWDDDKYYSPSLESRLTITKDTSKNQVVLTMTNMDPVDTATYYCARSYDDYLYYALDTWGQGTLVT
VL: DIQMTQSPSSLSAFVGDGVTMTCWASQSINDYLNWYHQRPGEAPELLVFAASNLQIGVPSRFRGSGSETYFTLTINSLQPEDSGTYFCQNGHSFPLTFGGGTKLEI
B11: mAb 770 (antibody, V domains shown)
VH: QVTLKESGPTLVKPTQTLTLTCSFSGFSLSTSGVGVGWVRQPPGKALEWLAFIFWDDDKYYSPSLESRLTITKDTSKNQVVLTMTNMDPVDTATYYCARSYDDYLYYALDYWGQGTLVT
VL: DIQMTQSPSSLSAFVGDGVTMTCWASQSINDYLNWYHQRPGEAPELLVFAASNLQIGVPSRFRGSGSETYFTLTINSLQPEDSGTYFCQHGHSFPLTFGGGTKLEI
B12: mAb 765 (antibody, V domains shown)
VH: QVTLKESGPTLVKPTQTLTLTCSFSGFSLSTSGVGVGWVRQPPGKALEWLAFIFWDDDKYYSPSLESRLTITKDTSKNQVVLTMTNMDPVDTATYYCARSYDDYLYYALDYWGQGTLVT
VL: DIQMTQSPSSLSAFVGDGVTMTCWASQSINDYLNWYHQRPGEAPELLVFAASNLQIGVPSRFRGSGSETYFTLTINSLQPEDSGTYFCQNAHSFPLTFGGGTKLEI
B13: mAb 191 (antibody, V domains shown)
VH: QVTLKESGPALVKPTQTLTLTCTFSGFSLTTSGMCVSWIRQPPGKALEWLALIYWDDDKRYNPSLRSRLTITKDTSKNQVVLTMTNMDPVDTATYYCARSYDDYLYYALDYWGQGTLVT
VL: DVVMTQSPSSLSASVGGRVTITCRASQTIGDYLNWYQQRPGKAPRLLIYSASIVQSGVPSRFSGSGSGTHFTLTISSLQPEDFATYSCQQSYSFPLTFGGGTKLEIK
B14: mAb 810 (antibody, V domains shown)
VH: QVTLKESGPTLVKPTQTLTLTCSFSGFSLSTSGVGVGWVRQPPGKALEWLAFIFWDDDKYYSPSLESRLTITKDTSKNQVVLTMTNMDPVDTATYYCARSYDDYLYYSLDYWGQGTLVT
VL: DIQMTQSPSSLSAFVGDGVTMTCWASQSINDYLNWYHQRPGEAPELLVFAASNLQIGVPSRFRGSGSETYFTLTINSLQPEDSGTYFCQNGHSFPLTFGGGTKLEI
B15: mAb 1156 (antibody, V domains shown)
VH: QVTLKESGPTLVKPTQTLTLTCSFSGFSLSTSGVGVGWVRQPPGKALEWLAFIFWDDDKYYSPSLESRLTITKDTSKNQVVLTMTNMDPVDTATYYCARSADDYLYYSFDTWGQGTLVT
VL: DIQMTQSPSSLSAFVGDGVTMTCWASQSINDYLNWYHQRPGEAPELLVFAASNLQIGVPSRFRGSGSETYFTLTINSLQPEDSGTYFCQSGHSFPLTFGGGTKLEI
B16: mAb 963 (antibody, V domains shown)
VH: QVTLKESGPTLVKPTQTLTLTCSFSGFSLSTSGVGVGWVRQPPGKALEWLAFIFWDDDKYYSPSLESRLTITKDTSKNQVVLTMTNMDPVDTATYYCARSGDDYLYYALDYWGQGTLVT
VL: DIQMTQSPSSLSAFVGDGVTMTCWASQSINDYLNWYHQRPGEAPELLVFAASNLQIGVPSRFRGSGSETYFTLTINSLQPEDSGTYFCQNGHSFPLTFGGGTKLEI
B17: mAb 968 (antibody, V domains shown)
VH: QVTLKESGPTLVKPTQTLTLTCSFSGFSLSTSGVGVGWVRQPPGKALEWLAFIFWDDDKYYSPSLESRLTITKDTSKNQVVLTMTNMDPVDTATYYCARSYDDYLYYAFDYWGQGTLVT
VL: DIQMTQSPSSLSAFVGDGVTMTCWASQSINDYLNWYHQRPGEAPELLVFAASNLQIGVPSRFRGSGSETYFTLTINSLQPEDSGTYFCQNGHSFPLTFGGGTKLEI
B18: mAb 275 (antibody, V domains shown)
VH: QVTLKESGPALVKPTQTLTLTCTFSGFSLTTSGMCVSWIRQPPGKALEWLALIYWDDDKRYNPSLRSRLTITKDTSKNQVVLTMTNMDPVDTATYYCARSYDDYLYYALDYWGQGTLVT
VL: DIQMTQSPSSLSAFVGDGVTMTCWASQSINDYLNWYHQRPGEAPELLVFAASNLQIGVPSRFRGSGSETYFTLTINSLQPEDSGTYFCQNGHSFPLTFGGGTKLEI
B19: mAb 774 (antibody, V domains shown)
VH: QVTLKESGPTLVKPTQTLTLTCSFSGFSLSTSGVGVGWVRQPPGKALEWLAFIFWDDDKYYSPSLESRLTITKDTSKNQVVLTMTNMDPVDTATYYCARSYDDYLYYALDYWGQGTLVT
VL: DIQMTQSPSSLSAFVGDGVTMTCWASQSINDYLNWYHQRPGEAPELLVFAASNLQIGVPSRFRGSGSETYFTLTINSLQPEDSGTYFCQSGHSFPLTFGGGTKLEI
B20: mAb 1155 (antibody, V domains shown)
VH: QVTLKESGPTLVKPTQTLTLTCSFSGFSLSTSGVGVGWVRQPPGKALEWLAFIFWDDDKYYSPSLESRLTITKDTSKNQVVLTMTNMDPVDTATYYCARSADDYLYYSFDTWGQGTLVT
VL: DIQMTQSPSSLSAFVGDGVTMTCWASQSINDYLNWYHQRPGEAPELLVFAASNLQIGVPSRFRGSGSETYFTLTINSLQPEDSGTYFCQHGHSFPLTFGGGTKLEI

The target of the experiment is T1, recombinant human IL-6 (human, UniProt P05231 30-212, limits assumed).
T1 construct: also called rhIL6; human recombinant IL-6
In words: competition ELISA, rhIL-6 in solution against captured IL-6. The protocol:
Briefly, plates were coated with 2 μg/ml of mBE4 capture antibody in coating buffer, 100 μl per well. The plates were incubated overnight. Next, the plates were washed 3 times and tapped dry. The plates were then blocked with 200 μl per well of Assay Diluent or 10% FBS in PBS and incubated for 2 hours. […] The reaction was left at RT for 3-4 hours. […] Next, the plates were washed 3 times and tapped dry. […] The plates were incubated for 1-2 hours. The plates were washed 3 times and tapped dry. […] The plates were incubated at RT for 2 hours. (Therefore, any unbound mAb at this point will be measured by ELISA). Plates were then washed 5 times and tapped dry. 100 μl of detection Ab goat anti-human IgG F(ab)′2-HRP (Jackson lab) was added at 1:20,000 dilutions or 1:40,000 dilutions (depending on lot) and the plates were incubated for 1-2 hours. The plates were washed 7 times and tapped dry. Next, the Developer Substrate (equal parts of each reagent in the kit) was pre-mixed and allowed to warm to room temperature before use. Then 100 μl of Developer was added to each well. The plates were allowed to develop for 15 minutes un-sealed in a drawer in the dark. Finally, developing was stopped by adding 100 μl of 2N H₂SO₄ to each well and plates were read as Endpoint at 450 nm-[…].
A general note: ELISA stands for enzyme-linked immunosorbent assay.
B1: the IC50 came out at 2 nM.
For B2 the value was 1.4 nM.
On to B3, for which the IC50 came to 2.4 nM.
As for B4, the IC50 stood at 0.72 nM.
For B5 the value was 0.09 nM; for B6, 0.08 nM; for B7, 0.029 nM.
For B8, the IC50 came to 0.11 nM.
The value for B9 was 0.027 nM.
For B10, the IC50 is 0.065 nM.
For B11 the value was 0.12 nM.
Consider B12, for which the IC50 worked out at 0.07 nM.
For B13 the value was 1.5 nM.
For the molecule B14, the IC50 was 0.22 nM.
The value for B15 was 0.023 nM; that for B16 was 0.09 nM; that for B17 was 0.053 nM.
The value for B18 was 0.7 nM; that for B19 was 0.16 nM; that for B20 was 0.032 nM.
